T1: rVps1 (His-Vps1; yeast dynamin homolog Vps1) (Saccharomyces cerevisiae, UniProt P21576)
T1 sequence (P21576 1-704): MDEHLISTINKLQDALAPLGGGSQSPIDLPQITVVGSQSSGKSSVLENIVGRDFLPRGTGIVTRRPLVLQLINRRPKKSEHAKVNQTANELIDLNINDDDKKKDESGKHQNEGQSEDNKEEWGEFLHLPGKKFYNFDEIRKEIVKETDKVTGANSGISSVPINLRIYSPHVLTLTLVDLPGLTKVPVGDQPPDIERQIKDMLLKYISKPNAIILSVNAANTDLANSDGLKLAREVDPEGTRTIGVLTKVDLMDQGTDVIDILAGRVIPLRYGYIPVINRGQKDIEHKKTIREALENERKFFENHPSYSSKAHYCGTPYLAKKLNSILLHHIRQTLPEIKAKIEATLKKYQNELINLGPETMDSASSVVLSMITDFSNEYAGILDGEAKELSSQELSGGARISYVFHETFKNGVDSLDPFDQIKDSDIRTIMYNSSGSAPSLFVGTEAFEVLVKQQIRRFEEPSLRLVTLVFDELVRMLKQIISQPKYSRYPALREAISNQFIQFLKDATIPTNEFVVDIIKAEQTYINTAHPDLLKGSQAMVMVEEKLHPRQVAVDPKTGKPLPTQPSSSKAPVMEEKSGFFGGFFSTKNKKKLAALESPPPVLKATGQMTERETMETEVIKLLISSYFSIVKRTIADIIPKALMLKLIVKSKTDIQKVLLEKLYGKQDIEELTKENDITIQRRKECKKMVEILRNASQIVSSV

T2: recombinant Vps1 (yeast, UniProt P21576 1-704)
T2 sequence: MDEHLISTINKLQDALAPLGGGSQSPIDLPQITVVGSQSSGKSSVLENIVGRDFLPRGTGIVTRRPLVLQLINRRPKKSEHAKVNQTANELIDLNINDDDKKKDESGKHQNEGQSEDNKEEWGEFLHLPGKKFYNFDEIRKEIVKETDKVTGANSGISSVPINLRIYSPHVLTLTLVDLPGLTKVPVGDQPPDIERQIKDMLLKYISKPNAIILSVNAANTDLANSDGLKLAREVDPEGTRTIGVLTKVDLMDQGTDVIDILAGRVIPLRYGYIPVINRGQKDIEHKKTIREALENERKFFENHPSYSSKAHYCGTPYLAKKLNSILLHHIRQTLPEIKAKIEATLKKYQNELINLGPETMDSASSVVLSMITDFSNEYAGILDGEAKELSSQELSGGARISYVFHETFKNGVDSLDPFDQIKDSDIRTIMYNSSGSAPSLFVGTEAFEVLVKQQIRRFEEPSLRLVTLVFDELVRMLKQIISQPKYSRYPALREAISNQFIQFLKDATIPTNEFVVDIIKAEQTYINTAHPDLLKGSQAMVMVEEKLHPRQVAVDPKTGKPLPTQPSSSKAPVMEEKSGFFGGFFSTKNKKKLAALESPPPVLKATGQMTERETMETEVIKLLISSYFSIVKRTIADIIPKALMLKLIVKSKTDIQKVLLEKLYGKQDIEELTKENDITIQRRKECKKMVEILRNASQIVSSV


Tests used:
[1] = target: T1, rVps1 (His-Vps1; yeast dynamin homolog Vps1); assay: GTPase assay, released Pi by malachite green; type: biochemical; conditions: read-out: % inhibition at 100 uM
[2] = target: T2, recombinant Vps1; assay: far-Western, overlay or dot blot

Row | inhibition at 100 µM [1] [%] | binding result [2] | Molecule
1 | ~60 | – | O=C(N/N=C/c1ccc(O)c(O)c1)c1cc2ccccc2cc1O [dynasore]
2 | – | binds | SNARE domain of Vam3 (190–252) (domain or fragment) TIIHQERSQQIGRIHTAVQEVNAIFHQLGSLVKEQGEQVTTIDENISHLHDNMQNANKQLTRA
3 | – | binds | Vam3 full-length (1–252) (domain or fragment) MSFFDIEAQSSKGNSQQEPQFSTNQKTKELSNLIETFAEQSRVLEKECTKIGSKRDSKELRYKIETELIPNCTSVRDKIESNILIHQNGKLSADFKNLKTKYQSLQQSYNQRKSLFPLKTPISPGTSKERKDIHPRTEAVRQDPESSYISIKVNEQSPLLHNEGQHQLQLQEEQEQQQQGLSQEELDFQTIIHQERSQQIGRIHTAVQEVNAIFHQLGSLVKEQGEQVTTIDENISHLHDNMQNANKQLTRA

Reference: article PMC3630463 (Nature communications, 2013)
